This assay concerns the target T1, TcdB1 holotoxin (VPI10463 strain), recombinant full-length, from Bacillus megaterium (Clostridioides difficile (VPI10463 …, UniProt P18177 1-2366)).
T1 construct: source: Bacillus megaterium, purified as described previously
The assay can be described thus: BLI. As to conditions: both partners purified.

The source of these data is publication PMC8213806 (Nature Communications, 2021).

B1: Repeat1-Fc (CSPG4 Repeat1, residues 410–551, fused to the N-terminus of human IgG1 Fc) (Fc fusion)
chain: ELPEPCVPEPGLPPVFANFTQLLTISPLVVAEGGTAWLEWRHVQPTLDLMEAELRKSQVLFSVTRGARHGELELDIPGAQARKMFTLLDVVNRKARFIHDGSEDTSDQLVLEVSVTARVPMPSCLRRGQTYLLPIQVNPVND
notes: also called CSPG4 decoy; source: FreeStyle HEK 293 cells, secreted, purified (Ni-NTA); not shown: Fc (human IgG1), C-terminal, kept
Usually Kd stands for the concentration at which binding is half-saturated. A word on the koff: it is the first-order rate constant of dissociation. A word on the kon: it is the second-order rate constant of association. Consider B1, for which the Kd is around 15.2 nM, the off-rate constant (koff) was around 0.000108 s⁻¹ and the kon is around 7060 M⁻¹ s⁻¹.

B2: His-tagged CSPG4 Repeat1 (residues 410–551), biotinylated (domain or fragment)
chain: B1 chain
modifications: biotinylated using EZ-Link NHS-PEG4-Biotin at pH 6.5
notes: also called His-tagged Repeat1; source: FreeStyle HEK 293 cells, secreted, purified (Ni-NTA); not shown: 8xHis, N-terminal, kept
On to B2, for which the binding result was “binds”.

B3: CSPG4^mini (human CSPG4 residues 30–764: two laminin G motifs and first two CSPG repeats) (domain or fragment)
chain: ASFFGENHLEVPVATALTDIDLQLQFSTSQPEALLLLAAGPADHLLLQLYSGRLQVRLVLGQEELRLQTPAETLLSDSIPHTVVLTVVEGWATLSVDGFLNASSAVPGAPLEVPYGLFVGGTGTLGLPYLRGTSRPLRGCLHAATLNGRSLLRPLTPDVHEGCAEEFSASDDVALGFSGPHSLAAFPAWGTQDEGTLEFTLTTQSRQAPLAFQAGGRRGDFIYVDIFEGHLRAVVEKGQGTVLLHNSVPVADGQPHEVSVHINAHRLEISVDQYPTHTSNRGVLSYLEPRGSLLLGGLDAEASRHLQEHRLGLTPEATNASLLGCMEDLSVNGQRRGLREALLTRNMAAGCRLEEEEYEDDAYGHYEAFSTLAPEAWPAMELPEPCVPEPGLPPVFANFTQLLTISPLVVAEGGTAWLEWRHVQPTLDLMEAELRKSQVLFSVTRGARHGELELDIPGAQARKMFTLLDVVNRKARFIHDGSEDTSDQLVLEVSVTARVPMPSCLRRGQTYLLPIQVNPVNDPPHIIFPHGSLMVILEHTQKPLGPEVFQAYDPDSACEGLTFQVLGTSSGLPVERRDQPGEPATEFSCRELEAGSLVYVHRGGPAQDLTFRVSDGLQASPPATLKVVAIRPAIQIHRSTGLRLAQGSAMPILPANLSVETNAVGQDVSVLFRVTGALQFGELQKQGAGGVEGAEWWATQAFHQRDVEQGRVRYLSTDPQHHAYDTVENLALEVQ
notes: source: FreeStyle HEK 293 cells, secreted, purified (Ni-NTA, Superdex-200)
On to B3, for which the binding result is on record as “binds”.
